The record followed here is the supplement of paper PMC9170038.

The test system of this data set is MS2 coat protein. In words: apparent KD of MS2 coat protein; designed switch direction (-1 OFF switch, 1 ON switch): -1; higher = weaker reporter binding. A digest of the protocol: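 Apparent KD, taken as the median over clusters for each design, was obtained by curve-fitting normalised cluster fluorescence. Designed RNA switches had been transcribed on Illumina chips by stalled E. coli RNA polymerase and titrated with SNAP-549-labelled MS2 coat protein, doubling from 0.7 or 1.5 nM to 3 µM.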

[1] abbreviates: Eterna round: R95, input ligand: FMN 200 uM.
Where [2] appears, read: Eterna round: R95, input ligand: microRNA oligo, concentration not stated.
Setting [3] is: Eterna round: R95, input ligand: none.
The mark [4] stands for this setting: input ligand: microRNA oligo, concentration not stated.

As for “AAUACAAGCUAUUGAUCCCACAUGAGGAUCACCCAUGUAUAUGCCCGUGACACGUGCAUGACGAUAGCUCGUCUUAU [Sensor-V1 #60] (Eterna round: R97, puzzle: Sensor, turn-off variant 1)”, the “apparent KD of MS2 coat protein” value reads like this: (input ligand: FMN 200 uM) 85.8 nM; (input ligand: none) 102 nM.

As for “AAUACCCGAGGAUAUCUAAUUCGGCACAUGAGGAUCACCCAUGUGAUCUGACCUAGCCGAGGAGAAGGCGGGUCAG [Errizabe] (puzzle: Exclusion 5)”, the “apparent KD of MS2 coat protein” value reads like this: under setting [1], 25.8 nM; under setting [2], 12.9 nM; under setting [3], 12.1 nM.

Turning to “AAUACCGGUCUGCCUAAAGACAUGAGGAUCACCCAUGUCUGAUUCUCAACAGGCCUUUUGCUUCUCUUAACUACACA [Vetilage] (puzzle: Sensor v3, turn-off variant 1)”, the “apparent KD of MS2 coat protein” value was 13.9 nM under setting [1], 23.1 nM under setting [2] and 12.6 nM under setting [3].

As for “AAUCCACAUGAGGAUCACCCAUGUCAGGAUAUCGCGCGCGCGGUUUCGGUCGCGCGCGCGAGAAGGGACGGCUG (puzzle: Exclusion 1)”, under setting [2], the “apparent KD of MS2 coat protein” value is 22.1 nM.

As to “AAUCUUCUAGGAUAUAUAUGGUAGCGGGAGAACCCAGUCACACAUGAGGAUCACCCAUGUAGAAGGAGAAUAGG [Eternabot (L1) Solution 87] (Eterna round: R97, puzzle: Exclusion 2)”, the “apparent KD of MS2 coat protein” value worked out at 107 nM (input ligand: FMN 200 uM) and 99.7 nM (input ligand: none).

For the sequence “AAUGAUGAUGUGAGGAUAUACAUAGUUAGAAAGUAGUAGAAGGCACAUGAGGAUCACCCAUGUAGAUGUAAGGU [JR_BME4_Sub001] (puzzle: Brourd's mod of Exclusion 4)”, the “apparent KD of MS2 coat protein” value is, setting by setting: under setting [1], 52.5 nM; under setting [2], 26.3 nM; under setting [3], 24.6 nM.

In the case of “AAUGCCGUAGGAUAUAUAUGGCAGAUCGCACGUCCUGAAAGACAUGAGGAUCACCCAUGUAGAAGGGCGGAAAC [Ceisisan] (puzzle: Exclusion 2)”, under setting [2], the “apparent KD of MS2 coat protein” value is 14.1 nM.

Turning to “AAUGCGAGUGUUAGGAUAUACAAGGAUCCAUAUUUGUAGAAGGAACAUGAGGAUCACCCAUGUAAGGGAAUAAA [Enususxebe] (puzzle: Brourd's mod of Exclusion 4)”, the “apparent KD of MS2 coat protein” value is 166 nM under setting [1], 59.5 nM under setting [2] and 65.7 nM under setting [3].

As to “AAUGGUAAAGUCAGGAUAUACGUAAGUCGUUCUAGGUAGAAGGGACAUGAGGAUCACCCAUGUAUGAUAGUAAA [Ex4 #33] (Eterna round: R97, puzzle: Brourd's mod of Exclusion 4)”, the “apparent KD of MS2 coat protein” value reads like this: (input ligand: FMN 200 uM) 25.4 nM; (input ligand: none) 44.6 nM.

Turning to “AAUUAACAUGUAGGAUAUCUGCACGUUUAGUGCAGAGAAGGACAUGAGGAUCACCCAUGUAUAGCGACUUCGGUCGCAAUAAUU [ENG1/2-B2] (Eterna round: R96, puzzle: Exclusion NG 1)”, the “apparent KD of MS2 coat protein” value (input ligand: FMN 200 uM) is 377 nM, the “apparent KD of MS2 coat protein” value under setting [4] came to 105 nM and the “apparent KD of MS2 coat protein” value (input ligand: none) came to 131 nM.

In the case of “AAUUAGUGAGGAUAUUUGAACAGUGGCAGUAGCCAGUGCAUGAAGAAGGCACAUGAGGAUCACCCAUGUUAUAA [EX4 #58] (Eterna round: R97, puzzle: Exclusion 4)”, the “apparent KD of MS2 coat protein” value runs as follows: (input ligand: FMN 200 uM) 70.5 nM; (input ligand: none) 39.8 nM.

Take “AAUUAUUAUCGAGGAUAUCGUAUUGAAAUAAUAUGAGAAGGCGGGAUAAACAUGAGGAUCACCCAUGUGAGCCUGAUGCUUGUG [Ex NG1 #38] (Eterna round: R96, puzzle: Exclusion NG 1)”: the “apparent KD of MS2 coat protein” value under setting [4] worked out at 14.9 nM.

Take “AAUUCACAAGCGAGAUCCCACAUGAGGAUCACCCAUGUGCUCGUCUUAUAAGGUACUGUGACGAGAGUCACGGUACC [Mat - Sensor, turn-off var - Eli Mod - D88] (Eterna round: R97, puzzle: Sensor, turn-off variant 1)”: the “apparent KD of MS2 coat protein” value (input ligand: FMN 200 uM) was 15.7 nM and the “apparent KD of MS2 coat protein” value (input ligand: none) is 16 nM.
